Bridges are numbered along the chain shown (N, C = ends). Where no end group is shown, it is not given here. [ ]: non-standard residue; d: D form. Aib = CC(C)(N)C(=O)O
Experiments:
FIGURE 5 = test: FIGURE 5
Excerpt: Table printed on a drawing sheet, FIGURE 5

FIGURE 13 = test: FIGURE 13
Excerpt: Table printed on a drawing sheet, FIGURE 13
W1 means Week 1 and W12 means Week 12.
First reader's note: The first row gives the substance together with its dose (mg/kg), and each result cell holds the value with its ± deviation in the same cell.

human GLP-1 receptor = human GLP-1 receptor (human, UniProt P43220 24-463); test: cell-based or functional assay
human GCG receptor = human GCG receptor (human, UniProt P47871 26-477); test: cell-based or functional assay
Sequence of human GCG receptor (P47871 26-477): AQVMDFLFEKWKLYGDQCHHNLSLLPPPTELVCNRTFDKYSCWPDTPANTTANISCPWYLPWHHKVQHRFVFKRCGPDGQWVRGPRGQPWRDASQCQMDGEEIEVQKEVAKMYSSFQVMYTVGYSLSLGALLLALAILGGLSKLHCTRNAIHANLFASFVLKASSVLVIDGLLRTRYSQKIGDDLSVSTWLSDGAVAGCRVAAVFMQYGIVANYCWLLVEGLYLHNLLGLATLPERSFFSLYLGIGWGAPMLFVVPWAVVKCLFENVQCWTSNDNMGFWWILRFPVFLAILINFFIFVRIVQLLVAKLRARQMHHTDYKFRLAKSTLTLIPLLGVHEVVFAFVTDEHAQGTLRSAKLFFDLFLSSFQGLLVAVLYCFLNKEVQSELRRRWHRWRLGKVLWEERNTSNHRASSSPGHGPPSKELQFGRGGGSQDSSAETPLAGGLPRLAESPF

human GIP receptor = biological target: T1, human GIP receptor (human, UniProt P48546 22-466); test: cell-based or functional assay
T1 sequence (looked up): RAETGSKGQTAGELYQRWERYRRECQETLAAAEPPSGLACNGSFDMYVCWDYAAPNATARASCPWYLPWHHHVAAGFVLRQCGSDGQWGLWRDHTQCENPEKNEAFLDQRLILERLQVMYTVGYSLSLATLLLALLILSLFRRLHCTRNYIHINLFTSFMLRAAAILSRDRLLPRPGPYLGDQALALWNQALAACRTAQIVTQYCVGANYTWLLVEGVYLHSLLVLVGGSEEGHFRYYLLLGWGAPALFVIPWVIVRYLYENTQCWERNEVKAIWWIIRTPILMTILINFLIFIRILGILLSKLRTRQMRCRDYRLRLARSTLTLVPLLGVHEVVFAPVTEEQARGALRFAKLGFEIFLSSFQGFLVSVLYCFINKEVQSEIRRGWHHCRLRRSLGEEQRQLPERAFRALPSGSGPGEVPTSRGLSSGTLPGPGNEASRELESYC

## LONG-ACTING CONJUGATE OF SEQ ID NO: 42 0.01 mg/kg (N=5) (Y[Aib]QGTFTSDYSKYLDEKRAKEFVQWLLDHHPSSGQPPPSC; lactam 16-20; not fully specified (residue 40); also: long-acting carrier conjugate)
FIGURE 5
  Dose-normalized Cmax (ng/mL/mg): 30.73 (13.34) ng/mL/mg
  Tmax (hr): 31.20 (10.733) hr

## LONG-ACTING CONJUGATE OF SEQ ID NO: 42 0.01 mg/kg (Y[Aib]QGTFTSDYSKYLDEKRAKEFVQWLLDHHPSSGQPPPSC; lactam 16-20; not fully specified (residue 40); also: long-acting carrier conjugate)
FIGURE 13
  Cmax: 31.22 ± 13.47 ng/mL
  Tmax: 48.00 ± 12.00 h

## LONG-ACTING CONJUGATE OF SEQ ID NO: 42 0.02 mg/kg (Y[Aib]QGTFTSDYSKYLDEKRAKEFVQWLLDHHPSSGQPPPSC; lactam 16-20; not fully specified (residue 40); also: long-acting carrier conjugate)
FIGURE 13
  AUC0-168h: 11770.3 ± 7192.4 ng·h/mL
  Tmax: 48.00 ± 22.22 h

## H[Aib]QGTFTSDYSIAMDEIHQKDFVNWLLAQKC (bridge 16-20) [triple agonist of SEQ ID NO: 33]
Human GLP-1 receptor
  In vitro activity relative to native peptide (%) vs. GLP-1: 24.5%
Human GCG receptor
  In vitro activity relative to native peptide (%) vs. Glucagon: < 0.1%
Human GIP receptor
  In vitro activity relative to native peptide (%) vs. GIP: 10.4%
